# Measurements: patent publication US9266964
# Residue numbers refer to the chain shown, from its start.
# B1: M9-E04 (Fab, V domains shown)
# VH: EVQLLESGGGLVQPGGSLRLSCAASGFTFSEYDMMWVRQAPGKGLEWVSSIGSSGGMTYYADSVKGRFTISRDNSKNTLYLQMNSLRAEDTAVYYCARDQVAAAAIDYWGQGTLVTVSS
# VL: DIQMIQSPSSLSASVGDRVTITCRASQSISGYLNWYQQRSGKAPKLLIFAASNLQTGVPSRFSGSGSGTDFTLTINNLQPEDFATYYCQQSHTPPKTFGPGTKVDIK
# notes: Fab fragment (E. coli TG1); printed HC runs into the start of CH1
# B2: M9-C10 (Fab, V domains shown)
# VH: EVQLLESGGGLVQPGGSLRLSCAASGFTFSLYPMQWVRQAPGKGLEWVSSIGSSGGMTFYADSVKGRFTISRDNSKNTLYLQMNSLRAEDTAVYYCTREVGAAGFAFDIWGQGTMVTVSS
# VL: DIQMTQSPSSLSASVGDRVTITCRASQGISSYLNWYQQKPGNAPNLLIYGASSLQSGVPSRFSGSGSGTDFTLTISSLQPEDFATYYCQESYSTLFTFGPGTTVEIK
# notes: as for B1
# B3: M201-H08 (Fab, V domains shown)
# VH: EVQLLESGGGLVQPGGSLRLSCAASGFTFSHYIMMWVRQAPGKGLEWVSGIYSSGGITVYADSVKGRFTISRDNSKNTLYLQMNSLRAEDTAVYYCAYRRTGVPRRDALDNWGQGTMVTVSS
# VL: DIQMTQSPSTLSASVGDRVTITCRASQSISSWLAWYQQKPGKAPNLLIYKASTLESGVPSRFSGSGSGTEFTLTISSLQPDDFATYYCQQYNTYWTFGQGTKVEIK
# B4: M197-G10 (Fab, V domains shown)
# VH: B3 VH with H31V, I33A, M35R, G50S, S53P, I57K, V59W, V103I, L109F, N111I
# VL: B3 VL
# B5: M202-A10 (Fab, V domains shown)
# VH: B3 VH with Y98F, V103I, A108S, L109F, N111I
# VL: B3 VL
# B6: M198-H09 (Fab, V domains shown)
# VH: EVQLLESGGGLVQPGGSLRLSCAASGFTFSIYLMIWVRQAPGKGLEWVSYIGPSGGPTEYADSVKGRFTISRDNSKNTLYLQMNSLRAEDTAVYYCAYRRTGIPRRDAFDIWGQGTMVTVSS
# VL: B3 VL
# B7: M201-F11 (Fab, V domains shown)
# VH: B3 VH with T101S, V103I, L109F, N111I
# VL: B3 VL
# B8: M195-A02 (Fab, V domains shown)
# VH: B3 VH with H31Q, I33M, Y52S, I57H, V59D, V103I, L109F, N111I
# VL: B3 VL
# B9: M198-C03 (Fab, V domains shown)
# VH: B6 VH with I31R, L33S, I35S, Y50G, G52S, P57E, E59S
# VL: B3 VL
# B10: M197-C12 (Fab, V domains shown)
# VH: B6 VH with I31P, L33D, I35L, G52V, P53S, P57L, E59K
# VL: B3 VL
# B11: M195-F12 (Fab, V domains shown)
# VH: B6 VH with I31H, L33V, I35M, G52V, P57V, E59A
# VL: B3 VL
# B12: M199-B01 (Fab, V domains shown)
# VH: B3 VH with Y98F, V103I, L109F
# VL: B3 VL
# B13: M196-D02 (Fab, V domains shown)
# VH: B6 VH with I31V, L33S, I35H, Y50V, P57I, E59L
# VL: B3 VL
# B14: M195-A12 (Fab, V domains shown)
# VH: B3 VH with H31P, I33M, S53P, I57Y, V103I, L109F, N111I
# VL: B3 VL
# B15: M198-A08 (Fab, V domains shown)
# VH: EVQLLESGGGLVQPGGSLRLSCAASGFTFSWYMMQWVRQAPGKGLEWVSRISPSGGTTYADSVKGRFTISRDNSKNTLYLQMNSLRAEDTAVYYCAYRRTGIPRRDAFDIWGQGTMVTVSS
# VL: B3 VL
# B16: M198-A01 (Fab, V domains shown)
# VH: B6 VH with I31P, L33T, G44L, L45G, Y50S, G52S, P53S, P57M, E59P
# VL: B3 VL
# B17: M202-A08 (Fab, V domains shown)
# VH: B3 VH with V103I, R106W, L109F, N111I
# VL: B3 VL
# B18: M200-F01 (Fab, V domains shown)
# VH: B3 VH with T101M, V103I, D107N, L109F, N111I
# VL: B3 VL
# B19: M199-A11 (Fab, V domains shown)
# VH: B3 VH with T101R, V103I, L109F, N111I
# VL: B3 VL
# B20: M195-G02 (Fab, V domains shown)
# VH: B6 VH with I31P, L33N, I35M, Y50S, G52W, P57T, E59D
# VL: B3 VL
# B21: M202-C02 (Fab, V domains shown)
# VH: B3 VH with T101P, L109F, N111I
# VL: B3 VL
# B22: M195-E12 (Fab, V domains shown)
# VH: B6 VH with I31Y, L33I, I35F, G52S, P57Y, E59H
# VL: B3 VL
# B23: M198-G03 (Fab, V domains shown)
# VH: EVQLLESGGGLVQPGGSLRLSCAASGFTFSQYTMVWVRQAPGKGLEWVSWIYSSRANYADSVKGRFTISRDNSKNTLYLQMNSLRAEDTAVYYCAYRRTGIPRRDAFDIWGQGTMVTVSS
# VL: B3 VL
# B24: M202-E03 (Fab, V domains shown)
# VH: B3 VH with V103I, L109F, D110E, N111I
# VL: B3 VL
# B25: M196-G12 (Fab, V domains shown)
# VH: B6 VH with I31N, L33S, I35D, Y50R, G52Y, P53S, P57G, E59I
# VL: B3 VL
# B26: M197-G11 (Fab, V domains shown)
# VH: B6 VH with I31T, L33A, I35V, Y50S, G52Y, P57I, E59T
# VL: B3 VL
# B27: M200-B01 (Fab, V domains shown)
# VH: B3 VH with V103I, L109F, N111S
# VL: B3 VL
# B28: M201-A06 (Fab, V domains shown)
# VH: B3 VH with V103I, A108V, L109F, N111I
# VL: B3 VL
# B29: M9-D08 (Fab, V domains shown)
# VH: EVQLLESGGGLVQPGGSLRLSCAASGFTFSWYKMMWVRQAPGKGLEWVSSIYPSGGWTNYADSVKGRFTISRDNSKNTLYLQMNSLRAEDTAVYYCTRGSPWGDDAFDIWGQGTMVTVSS
# VL: DIQMTQSPSSLSASVGDRVTLTCRASRTISFYLNWYQQKAGKAPELLIYGGSSLHSGVPSRFSGSGSGTDFSLTISNLQPEDIAVYYCQQSFSSPWTFGQGTKVEIK
# notes: as for B1
# B30: M9-C08 (Fab, V domains shown)
# VH: EVQLLESGGGLVQPGGSLRLSCAASGFTFSHYGMVWVRQAPGKGLEWVSYIVPSGGLTYYADSVKGRFTISRDNSKNTLYLQMNSLRAEDTAVYYCARVDYTGDGLGYWGQGTLVTVSS
# VL: DIQMTQSPSSLSASVGDRVTITCRASQSISIYVNWYQQKPGKAPNLLIFAASSLQRGVPSRFSGSGSGADFTLTISSLQPEDFATYYCQQSFSTPLTFGGGTKVEIK
# notes: as for B1
# B31: M9-A08 (Fab, V domains shown)
# VH: EVQLLESGGGLVQPGGSLRLSCAASGFTFSAYEMWWVRQAPGKGLEWVSYIGSSGGSTSYADSVKGRFTISRDNSKNTLYLQMNSLRAEDTAVYYCTGGNSSSFDAFDIWGQGTMVTVSS
# VL: DIQMTQSPSSLSASVGDRVTVTCRASQRISTYLNWYQQKPGKAPKLLISGASSLQSGVPSRFSGSGSGTDFTLTISSLQPDDFATYYCQQSYNTPRTFGQGTKVEIR
# notes: as for B1
# B32: M9-F08 (Fab, V domains shown)
# VH: EVQLLESGGGLVQPGGSLRLSCAASGFTFSPYAMTWVRQAPGKGLEWVSVIYPSGGFTDYADSVKGRFTISRDNSKNTLYLQMNSLRAEDTAMYYCARASGSYLDAFDIWGQGTMVTVSS
# VL: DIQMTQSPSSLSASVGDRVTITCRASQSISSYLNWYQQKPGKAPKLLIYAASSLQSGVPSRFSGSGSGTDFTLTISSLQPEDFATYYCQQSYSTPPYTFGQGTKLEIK
# notes: Fab fragment (E. coli TG1); printed HC runs into the start of CH1; The LC is printed with an amber codon 'q' (MTqSPS), written here as Q
# B33: M9-F09 (Fab, V domains shown)
# VH: EVQLLESGGGLVQPGGSLRLSCAASGFTFSSYPMGWVRQAPGKGLEWVSRISSSGGMTIYADSVKGRFTISRDNSKNTLYLQMNSLRAEDTAVYYCARDDWNVGMDVWGQGTTVTVSS
# VL: DIQMTQSPSSLSASVGDRVTITCRASQSISSYLNWYQQKPGKAPKLLIYAASSLQSGVPSKFSGSGSGTDYTLTISSLQPEDFATYYCQQTYTTPWTFGQGTKVEIK
# notes: as for B1
# Columns and labels:
# [1] = molecular target: T1, human plasma kallikrein (human, UniProt P03952 20-390; P03952 391-638); test: ELISA; signal on coated biotinylated human plasma kallikrein divided by signal on streptavidin; Fab
# T1 construct: two disulfide-linked chains; also called pKal; human pKal
# Source text: Abbreviations used: "T/B" is the ELISA signal obtained using of the target (biotinylated plasma kallikrein) divided by the ELISA signal of the "background" (streptavidin); both of which were coated on microtiter plates. "nd" is not determined. The symbol "q" refers to the amber suppressible stop codon (TAG), which is translated as glutamine (Q) in strains of E. coli such as the TG1 cells that were used to express the Fab fragments.
# T1 sequence (P03952 20-390, chain 1 of 2): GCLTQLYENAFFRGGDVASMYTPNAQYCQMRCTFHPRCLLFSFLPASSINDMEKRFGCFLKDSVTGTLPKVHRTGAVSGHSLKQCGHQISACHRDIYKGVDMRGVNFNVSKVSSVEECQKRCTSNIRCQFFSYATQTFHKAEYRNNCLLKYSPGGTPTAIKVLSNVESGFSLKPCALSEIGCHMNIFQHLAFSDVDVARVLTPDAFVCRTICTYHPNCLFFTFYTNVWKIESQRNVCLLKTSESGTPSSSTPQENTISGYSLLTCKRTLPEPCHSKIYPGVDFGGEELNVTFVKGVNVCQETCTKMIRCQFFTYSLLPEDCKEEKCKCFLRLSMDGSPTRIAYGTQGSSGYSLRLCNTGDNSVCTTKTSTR
# T1 sequence (P03952 391-638, chain 2 of 2): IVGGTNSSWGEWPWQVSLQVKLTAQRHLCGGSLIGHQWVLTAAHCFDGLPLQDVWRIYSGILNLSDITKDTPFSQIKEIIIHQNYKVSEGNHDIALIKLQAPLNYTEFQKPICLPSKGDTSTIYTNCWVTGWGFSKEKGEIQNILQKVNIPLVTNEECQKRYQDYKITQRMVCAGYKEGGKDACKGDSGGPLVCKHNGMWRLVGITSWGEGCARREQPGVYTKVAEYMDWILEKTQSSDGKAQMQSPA
# [2] = molecular target: human plasma kallikrein (human, UniProt P03952 20-390; P03952 391-638); test: cell-based or functional assay
# Target sequence in this assay (P03952 20-390, chain 1 of 2): as the sequence (P03952 20-390, chain 1 of 2) above
# Target sequence in this assay (P03952 391-638, chain 2 of 2): as the sequence (P03952 391-638, chain 2 of 2) above
Human pKal ELISA (T/B) [1],% inhibition at 10 nM [2] [%],Binder
18.8 T/B (target signal / background signal),–,B1
7.8 T/B (target signal / background signal),–,B2
–,74.5,B3
–,67.6,B4
–,36.3,B5
–,41.1,B6
–,15.7,B7
–,71.3,B8
–,72.4,B9
–,56.4,B10
–,45.5,B11
–,53.4,B12
–,66.2,B13
–,51.7,B14
–,72.3,B15
–,13.8,B16
–,52.9,B17

Human pKal ELISA (T/B) [1],% inhibition at 10 nM [2] [%],Binder
–,65.1,B18
–,65.4,B19
–,67.5,B20
–,74.3,B21
–,38,B22
–,53.8,B23
–,51.4,B24
–,51.1,B25
–,19.2,B26
–,42.6,B27
–,36.8,B28
35.9 T/B (target signal / background signal),–,B29
10.9 T/B (target signal / background signal),–,B30
5.5 T/B (target signal / background signal),–,B31
10.9 T/B (target signal / background signal),–,B32
7 T/B (target signal / background signal),–,B33
